# Source: article PMC4893161, “The Dynamic Localization of Cytoplasmic Dynein in Neurons Is Driven by Kinesin-1” (Neuron, 2016)
# B1: DIC1a: neuron-specific dynein intermediate chain isoform, expressed in COS cells (protein)
# chain: MSDKSDLKAELERKKQRLAQIREEKKRKEEERKKKEADMQQKKEPVPDDSDLDRKRRETEALLQSIGISPEPPLVQPLHFLTWDTCYFHYLVPTPMSPSSKSVSTPSEAGSQDDLGPLTRTLQWDTDPSVLQLQSDSELGRRLNKLGVSKVTQVDFLPREVVSYSKETQTPLATHQSEEDEEDEEMVEPKVGHDSELENQDKKQETKEAPPRELTEEEKQQILHSEEFLIFFDRTIRVIERALAEDSDIFFDYSGRELEEKDGDVQAGANLSFNRQFYDEHWSKHRVVTCMDWSLQYPELMVASYSNNEDAPHEPDGVALVWNMKFKKTTPEYVFHCQSSVMSVCFARFHPNLVVGGTYSGQIVLWDNRSHRRTPVQRTPLSAAAHTHPVYCVNVVGTQNAHNLITVSTDGKMCSWSLDMLSTPQESMELVYNKSKPVAVTGMAFPTGDVNNFVVGSEEGTVYTACRHGSKAGIGEVFEGHQGPVTGINCHMAVGPIDFSHLFVTSSFDWTVKLWTTKHNKPLYSFEDNADYVYDVMWSPVHPALFACVDGMGRLDLWNLNSDTEVPTASVAIEGAYALNRVRWAQGGKEVAVGDSEGRIWIYDVGELAVPHNDEWTRFARTLVEIRANRADSEEEGAVELAA
# modifications: left off: mCherry, end not stated, kept
# notes: neuron-specific dynein intermediate chain isoform, expressed in COS cells
# How the values were obtained:
# Assay type in all cases: binding
# KLC2 = experiment: Co-immunoprecipitation of KLC2 versus KLC1 with mCherry-DIC1a in COS cells; settings: COS cell lysates, IP anti-mCherry, band intensity relative to KLC1, n = 4 experiments
# KIF5A, KIF5B, KIF5C = experiment: Co-immunoprecipitation of DIC1a with myc-tagged KIF5 isoforms in COS cells; settings: IP anti-myc, Figure 4A
# KIF5C stalk (561–774) = experiment: Co-immunoprecipitation of DIC1a with KIF5C head, stalk and tail constructs in COS cells; settings: IP anti-GFP, Figures 4B and 4C
molecule,measurement,setting,value
B1,KLC2 relative to KLC1 co-immunoprecipitated with DIC1a,KLC2,5 fold
same,co-precipitation with all three KIF5 isoforms,"KIF5A, KIF5B, KIF5C",co-precipitated
same,co-precipitation with stalk region of KIF5C,KIF5C stalk (561–774),co-precipitated
